Reference: paper PMC3447998 (Biochemistry, 2012)
Where no end group is shown, it is not given here. Me3 = trimethylated alpha-amino group on the N-terminal residue; Me2 = dimethylated alpha-amino group on the N-terminal residue

T1: recombinant human NRMT (N-terminal RCC1 methyltransferase) (human, UniProt Q9BV86 1-223)
T1 sequence (looked up): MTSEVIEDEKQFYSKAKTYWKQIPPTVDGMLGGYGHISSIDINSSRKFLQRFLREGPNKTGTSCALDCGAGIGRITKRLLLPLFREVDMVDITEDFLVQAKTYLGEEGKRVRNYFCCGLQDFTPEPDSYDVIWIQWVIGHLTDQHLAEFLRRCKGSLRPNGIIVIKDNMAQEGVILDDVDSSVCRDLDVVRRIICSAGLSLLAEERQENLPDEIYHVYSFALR


Tests used:
[1] = target: T1, recombinant human NRMT (N-terminal RCC1 …); assay: ITC
[2] = target: T1, recombinant human NRMT (N-terminal RCC1 …); assay: ITC; remark: listed apart in the source

Row | Binder | Ka [1] [M⁻¹] | Kd [2] [µM] | dH [2] [kJ/mol] | stoichiometry N [2] | Kd of the first phase of the bi-phasic curve [2] [µM] | Kd of the second phase of the bi-phasic curve [2] [µM] | dH of the first phase of the bi-phasic curve [2] [kJ/mol] | dH of the second phase of the bi-phasic curve [2] [kJ/mol]
1 | SPKRIAKRRS [SPKRIAKRRS, wild-type 10-residue SPK-RCC1 N-terminal peptide] | 100000 | 10 | -41.6 ± 0.866 | 0.8 | – | – | – | –
2 | PPKRIAKRRS [PPKRIAKRRS, 10-residue PPK-RCC1 N-terminal peptide] | – | – | – | – | 0.0015 | 0.14 | -129.7 ± 0.925 | -39.4 ± 0.803
3 | Me2-PPKRIAKRRS [me2PPKRIAKRRS, 10-residue me2-PPK-RCC1 N-terminal product peptide] | 770000 | 1.3 | -24.1 ± 0.389 | 0.9 | – | – | – | –
4 | Me3-SPKRIAKRRS [me3SPKRIAKRRS, 10-residue me3-SPK-RCC1 N-terminal product peptide] | 480000 | 2 | -18.1 | 1.2 | – | – | – | –
